From patent US20090118127A1 (Janssen / Centocor, published 2009)

Assays:
[1] = target: T1, human tumor necrosis factor alpha (TNFα) (human, UniProt P01375 77-233); assay: Biacore (SPR), calculated KD
T1 construct: also called human TNFα

[2] = target: T1, human tumor necrosis factor alpha (TNFα); assay: Biacore (SPR), 3 pairs of experiments
[3] = target: T1, human tumor necrosis factor alpha (TNFα); assay: ELISA, human TNFα coated on the plate, bound antibody detected with HRP anti-human kappa
Procedure: Antibodies were assessed for binding to human TNFα using an ELISA format. Briefly, human TNFα was coated into the wells of a 96 well plate and candidate mAbs were incubated at various concentrations (20 to 0.2 ng/ml) and bound antibody was detected with HRP-labeled anti-human kappa light chain IgG (Jackson, ImmunoResearch, West Grove, Pa.).

T1 sequence (P01375 77-233 limits assumed): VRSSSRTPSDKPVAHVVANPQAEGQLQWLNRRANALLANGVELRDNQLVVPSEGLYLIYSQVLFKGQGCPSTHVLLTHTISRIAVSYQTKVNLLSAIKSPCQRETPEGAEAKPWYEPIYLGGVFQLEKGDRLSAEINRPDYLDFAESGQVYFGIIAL

B1: Structure Based Human Adapted C7 (antibody, V domains shown)
VH: EVQLVESGGGLVQPGGSLRLSCAASGFIFSNHWMNWVRQAPGKGLEWIGEIRSKSINSATHYAESVKGRFIISRDDNKNSLYLEMNSLKTEDTAEYYCARNYYGSTYDYWGQGTLVTVS
VL: EIVLTQSPDFQSVTPKEKVTITCRASQFVGSSIHWYQQKPDQSPKLLIKYASESMSGVPSRFSGSGSGTDFTFTISSLEAEDAATYYCQQSHSWPFTFGPGTKVDIK
In the case of B1, the Kd [1] is reported as 70 pM, the koff [2] is reported as 5.63e-05 s⁻¹ and the kon [2] is reported as 803000 M⁻¹ s⁻¹. The “EC50 (read off the curve)” value [3] was roughly 2 ng/mL.
